Test results from the RNAGym collection of RNA variant scans (doi:10.1073/pnas.2313332121).
Fewer inactive variants are shown than the library holds.

B1: TPR 5TU (parent)
chain: GGAUCUUCUCGAUCUAACAAAAAAGACAAAUCUGCCACAAAGCUUGAGAGCAUCUUCGGAUGCAGAGGCGGCAGCCUUCGGUGGCGCGAUAGCGCCAACGUUCUCAACUAUGACACGCAAAACGCGUGCUCCGUUGAAUGGAGUUUAUCAUG

Variants of: B1
Assay: polymerase ribozyme fitness, log enrichment relative to wild type (log ratio); higher = more active; in vitro selection for triplet polymerase activity
Method in brief: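 Fitness measures genotype enrichment against wild-type enrichment on a logarithmic scale, with inverse-variance-weighted averaging of replicates. The logarithm is base 2, and genotypes were kept only with ≥10 input reads and ≥1 read per output in Illumina sequencing. The sequenced libraries came from one triplicate in vitro selection round, including frozen incubation at −7 °C, of PCR-built, transcribed mutant libraries of each subunit of a heterodimeric triplet polymerase ribozyme.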

Going from GGAUCUUCUCGAUCCAACAAAAAAGACAAAUCUGCCACAAAGCUUGAGAGCAUCUUCGGAUGCAGAGGCGGCAGCCUUCGGUGGCGCGAUAGCGCCAACGUUCUCAACUAUGACACGCAAAUCGCGUGCUCCGUUGAAUGGAGUUUAUCAUG [U15C A122U] to GGAUCUUCUCGAUCCAACAAAAAAGCCAAAUCUGCUACAAAGCUUGAGAGCAUCUUCGGAUGCAGAGGCGGCAGCCUUCGGUGACGCGAUAGCGCCAACGUUCUCAACUAUGACACGCAAAACGCGUGCUCCGUUGAAUGGAGUUUUUCAUG [U15C A26C C36U G84A A147U], the “polymerase ribozyme fitness (log ratio)” value falls from 0.45 to -3.47.

First: GGAUCUUCUCGAUCCAUCAAAAAAGACAAAUCUGCCACAAAGCUUGAGAGCAUCUUCGGGUCCAGAGGCGGCAGCCUUCGGUGGCGCGAUUGCGCCAACGUUCUCAACUAUGACACGCAAAACGCGUGCUCCGUUGAAUGGAGUUUAUCAUG [U15C A17U A60G G62C A91U]
Second: GGAUCUUCUCGAUCCAACAAAGAAGACAAAUCUGCCACAAAGCUUGAGAGCAUCUUCGGAUGCAGAGGCGGCAGCCUUCGGUGGCGCGAUAGCGCCAACGUUCUCAACUAUGACACGCAAAACGCGUGCUCCGUUGAAUGGAGUUUAUCAUG [U15C A22G]
The “polymerase ribozyme fitness (log ratio)” value of the first is lower: no more than -4.2 for the first, 1.56 for the second.

Going from GGAUCUUCUCGAUCCAACAAACAAGACAAAUCUGCCACAAAGCUUGAGAGCAUCUUCGGAUGCAGAGGCGGCAGCCUUCGGUGGUGCGAUAGCGCCAACGUUCUCAACUAUGACACGCAAAACGCGCGCUCCGUUGAAUGGAGUUUAUCAUG [U15C A22C C85U U127C] to GGAUCUUCUCGAUCCAAUAAAAAAGACAAAUCUGCCACAAAGCUUGAGAGCAUCUUCGGAUGCAGAGGCGGCAGCCUUCGGUGGGGCGAUAGCGCCAACGUUCUCAACUAUGACACGUAAAACGCGUGCUCCGUUUAAUGGAGUUUAUCAUG [U15C C18U C85G C118U G136U], the “polymerase ribozyme fitness (log ratio)” value falls from -2 to -3.19.

GGAUCUUCUCGAUCCAACAAAGAAGACAAAUCUGCCACAAAGCUUGCGAGCAUCAUCGGAUGCAGAGGCGGCAGCCUUCGGUGGCGCCAUAGCGCCAACGUUCUCAACUAUGACACGCAAAACGCGUGCUCCGUUGAACGGAGUUUAUCAUG [U15C A22G A47C U55A G88C U139C] and GGAUCUUCUCGAUCCAACAAAGAAGACAAAUCUGCCACAAAACUUGAGAGCAUCUUCGGAUGCAGAGGCGGCAGCCUUCGGUGACGCGAUAGCGCCAACGUUCUCAACUAUGACACGCAAAACGCGUGCUCCUUUGAAUGGAGUUUAUCAUG [U15C A22G G42A G84A G133U] cannot be ordered by “polymerase ribozyme fitness (log ratio)” value: no more than -4.2 for the first, no more than -4.2 for the second.

Going from GGAUCUUCUCGAUCCAACAAAAAAGACAAAUCUGCCACAAAGCUUGAGGGCAUCUUCGGAUGCAGAGGCGGCAGCCUUCGGUGGUGCGAUAGCGCCAACGUUCUCAACGAUGACACGCAAAACGCGUGCUCCGUUGAAUGGAGUUUAUCAUG [U15C A49G C85U U109G] to GGAUCUUCUCGAUCAAACAAAAAAGACAAAUCUGCCACAAAGCUUGAGAGCAUCUUCGUAUGCAGAGGCGGCAGCCUUGGGUGGCGCGAUAGAGCCAACGUUCUCAACUAUGACACGCAAAACGCGUGCUCCGAUGAAUGGAGUUUAUCAUG [U15A G59U C79G C93A U134A], the “polymerase ribozyme fitness (log ratio)” value falls from -0.987 to no more than -4.2.

Going from GGAUCUUCUCGAUCCAACAAAAAAGACAAAUCUGCCACACAGCUUGAGAGCAUCUUCGGAUGCAGAGGCGGCAGCCUUCGGUGGCGCGAUAGAGUCAACGUUCUCAACUAUGACAAGCAAUACGCGUGCUCCGUUGAAUGGAGUUUAUCAUG [U15C A40C C93A C95U C116A A121U] to GGAUCUUCUCGAUCAAACAAAAAAGACAAAUCUGCCACAAAGCUUGAGAGCAUCAUCGGAUGCAGAGGCGGCAGCCUUCGGUGGCGCCAUAGCGCCAACGUUCUCAACUAUGACACGCAAAACGCGUGCUCCGUUGAAUGGAGUGUAUCAUG [U15A U55A G88C U145G], the “polymerase ribozyme fitness (log ratio)” value falls from -1.18 to -3.86.

First: GGAUCUUCUCGAUCCAACAAAAAGGACAAAUCUGCCACAAAGCUUGAGAGCAUCUUCGGAUGCAGAGGCGGCAGCUUUCGGUGGCGCGAUAGCGCCAACGUUCUCAACUAUGACACGCAAAACGCGUGCUCCGUUGAAUGGAGUAUAUCAUG [U15C A24G C76U U145A]
Second: GGAUCUUCUCGAUCCGACAAAAAAGACAAAUCUGCCACAAAGCUUGAGAGCAUCUUCGUGUGCAGAGGCGGCAGCCUUCGGUGGCGCGAUAACGCCAACGUUCUCAACUAUGACAUGCAAAACGCGUGCUCCGUUGAAUGGAGUUUAUCAUG [U15C A16G G59U A60G G92A C116U]
The “polymerase ribozyme fitness (log ratio)” value of the first is lower: no more than -4.2 for the first, -0.967 for the second.

Going from GGAUCUUCUCGAUCCAACCAAAAAGACAAAUCUGCCACAAAGCUUGAGAGCAUCUUCGGAUGCAGAGGCGGCAGCCUUCGGUGGUGUGAUAGCGCCAACGUUCUCAACUAUGACACGCAAAACGCGUGCUCCGUUGAAUGGAGUUUAUCAUG [U15C A19C C85U C87U] to GGAUCUUCUCGAUCCAACCAAAAAGACAAAUCUGCCACAAAGCUUGAGAGCAUCUUCGGAUGCAGAGGCGGCAGCCUUCGGUGGCGCGAUUGCGCCAACGUUCUCAACUAUGACACGCAAAACGCGUGCUCCGUUGAAUGGAGUUUAUCAUG [U15C A19C A91U], the “polymerase ribozyme fitness (log ratio)” value falls from 0.246 to -3.68.

GGAUCUUCUCGAUCAAACAAAAAAGACAAAUCUGCCACAAAGCUUGAGAGCAUCUUCGGAUGCAGAGGCGGCAUCCUUGGGUGGCGCGAUAGCGCCAACGUUCUCAACUAUGACACGCAAAACGCGUGCUCCGUUGAAUGGAGUUUAUCAUG [U15A G74U C79G] and GGAUCUUCUCGAUCAAACAAAAAAGACAAAUCUGCCACAAAGCUUGAGAUCAUCUUCGGAUGCAGAGGCGGCAGCCUUCGGUGGCGCGAUAGCGUCAAGGUUCUUAACUAUGACGCGCAAAACGCGUGCUCCGUUGAAUGGAGUUUAUCCUG [U15A G50U C95U C99G C105U A115G A150C] cannot be ordered by “polymerase ribozyme fitness (log ratio)” value: no more than -4.2 for the first, no more than -4.2 for the second.

With GGAUCUUCUCGAUCAAACAAAAAAGACAAAUCUGCCACAAAGCUUGAGAGCAUCUUCGGAUGCAGAGGCGGCAGCCUUCGGUGGCGCGAUAGCACCAACGUUCUCAACUAUGACACGCAAAACGCGUGCUCCGUUGAAUGGAGUUUAUCAUG [U15A G94A] the “polymerase ribozyme fitness (log ratio)” value was -0.258.
